Reference: US20240209341A1 (University of California, published 2024)

Legend:
[1] = molecular target: T1, recombinant TLR4 ectodomain, His-tagged (Sino Biological) (human, UniProt O00206 24-631); experiment: pull-down with BE-1 anti-AIBP antibody, immunoblot
T1 construct: extracellular domain; Bought protein; also called eTLR4; eTLR4-His; not shown: His-tag
Description: (§1) Co-immunoprecipitation assays for TLR4 binding. Pull down assay of eTLR4 and wtAIBP or mutAIBP in test tube was performed by mixing 1 μg of eTLR4 (Sino Biological) and AIBP in PBS containing 0.5% Triton X-100 and incubating for 1 hour at room temperature. Samples were precleared by adding Protein A/G Sepharose beads at room temperature for 30 min, followed by addition of 1 μg of BE-1 monoclonal anti-AIBP antibody and incubation for 2 hours. Protein A/G Sepharose beads were added and incubated for an additional one hour, followed by 5 washes with PBS containing 0.5% Triton X-100 and immunoblot of samples.
FIG. 9: Identifies sequence motifs that contribute to AIBP binding to TLR4: FIG. 9. Identification of the domain in the AIBP molecule responsible for TLR4 binding. A, Human AIBP: signal peptide (aa 1-24), previously uncharacterized N-terminal domain (aa 25-51), and YjeF_N domain (aa 52-288). B, Flag-tagged deletion mutants of human AIBP were co-expressed in HEK293 cells with the Flag-tagged TLR4 ectodomain (eTLR4). Cell lysates were immunoprecipitated (IP) with an anti-TLR4 antibody and immunoblotted (IB) with an anti-Flag antibody. […] IP of eTLR4 and wtAIBP or mutAIBP in a test tube with an anti-AIBP antibody; blot and quantification from 3 independent experiments (D). […]

[2] = molecular target: T2, human APOA1 (human, UniProt P02647 25-267); experiment: ELISA, AIBP-coated plates incubated with 5 µg/ml human APOA1
T2 construct: also called ApoA-I
Description: ELISA binding assays. To assess AIBP-TLR4 binding, 96-well plates were coated with 5 μg/ml of eTLR4, washed three times with PBS containing 0.05% Tween-20, blocked with PBS containing 1% BSA, and incubated with wtAIBP or mutAIBP, followed by 2 μg/ml of a biotinylated BE-1 anti-AIBP monoclonal antibody. To assess AIBP-APOA1 binding, plates were coated with BSA, wtAIBP or mutAIBP, washed, blocked, and incubated with 5 μg/ml of human APOA1 (a gift from Dmitri Sviridov, Baker Heart and Diabetes Institute, Melbourne, Australia), followed by a biotinylated anti-APOA1 antibody (Academy Bio-Medical Company, RRID:AB_1238781). In both assays, neutravidin-AP was added and incubated for 45 minutes at room temperature, followed by LumiPhos 530 (Lumigen) for 90 min, and luminescence was measured using a luminescence plate reader (BioTek, Winooski, Vermont).
FIG. 9: Identifies sequence motifs that contribute to AIBP binding to TLR4: FIG. 9. Identification of the domain in the AIBP molecule responsible for TLR4 binding. A, Human AIBP: signal peptide (aa 1-24), previously uncharacterized N-terminal domain (aa 25-51), and YjeF_N domain (aa 52-288). […] IP of eTLR4 and wtAIBP or mutAIBP in a test tube with an anti-AIBP antibody; blot and quantification from 3 independent experiments (D). […]

[3] = molecular target: T1, recombinant TLR4 ectodomain, His-tagged …; experiment: test-tube co-IP with anti-TLR4 antibody, immunoblot with anti-His antibody
Text: FIG. 9: Identifies sequence motifs that contribute to AIBP binding to TLR4: FIG. 9. Identification of the domain in the AIBP molecule responsible for TLR4 binding. A, Human AIBP: signal peptide (aa 1-24), previously uncharacterized N-terminal domain (aa 25-51), and YjeF_N domain (aa 52-288). B, Flag-tagged deletion mutants of human AIBP were co-expressed in HEK293 cells with the Flag-tagged TLR4 ectodomain (eTLR4). Cell lysates were immunoprecipitated (IP) with an anti-TLR4 antibody and immunoblotted (IB) with an anti-Flag antibody. C, His-tagged human (hu), mouse (mo) and zebrafish (zf) AIBP, all lacking the signal peptide, expressed in a baculovirus/insect cell system, were combined in a test-tube with eTLR4-His, followed by IP with an anti-TLR4 antibody and IB with an anti-His antibody. D-H, Binding of His-tagged wild type (wt, 25-288 aa) and the deletion mutant (mut, 52-288 aa) human AIBP to eTLR4, APOA1 and microglia. IP of eTLR4 and wtAIBP or mutAIBP in a test tube with an anti-AIBP antibody; blot and quantification from 3 independent experiments (D). ELISA with plates coated with eTLR4 and incubated with wtAIBP or mutAIBP (n=3) (E). ELISA with plates coated with BSA, wtAIBP or mutAIBP and incubated with APOA1 (F). […]

[4] = molecular target: T1, recombinant TLR4 ectodomain, His-tagged …; experiment: co-immunoprecipitation with recombinant ectodomain of TLR4; proteins from E. coli
[5] = molecular target: T1, recombinant TLR4 ectodomain, His-tagged …; experiment: pull-down with anti-AIBP antibody, western blot with anti-his antibody
Description: as §1
A pulldown assay was performed using compounds as provided herein. Compounds 3, 7, 8 or 9 and other constructs described in FIGS. 13 and 14 were purified from either a baculovirus (BD Bioscience) or CHO (ExpiCHO, Expression Systems, ThermoFisher) cell expression system and incubated with TLR4 protein (Sino biological). Pull-down was performed with anti-AIBP antibody described. Bound TLR4 to AIBP was detected by western blot with an anti-his antibody (both modified AIBP and TLR4 have his-tag). Detailed experimental information is provided in example 1 as to pull down method.

T1 sequence (O00206 24-631): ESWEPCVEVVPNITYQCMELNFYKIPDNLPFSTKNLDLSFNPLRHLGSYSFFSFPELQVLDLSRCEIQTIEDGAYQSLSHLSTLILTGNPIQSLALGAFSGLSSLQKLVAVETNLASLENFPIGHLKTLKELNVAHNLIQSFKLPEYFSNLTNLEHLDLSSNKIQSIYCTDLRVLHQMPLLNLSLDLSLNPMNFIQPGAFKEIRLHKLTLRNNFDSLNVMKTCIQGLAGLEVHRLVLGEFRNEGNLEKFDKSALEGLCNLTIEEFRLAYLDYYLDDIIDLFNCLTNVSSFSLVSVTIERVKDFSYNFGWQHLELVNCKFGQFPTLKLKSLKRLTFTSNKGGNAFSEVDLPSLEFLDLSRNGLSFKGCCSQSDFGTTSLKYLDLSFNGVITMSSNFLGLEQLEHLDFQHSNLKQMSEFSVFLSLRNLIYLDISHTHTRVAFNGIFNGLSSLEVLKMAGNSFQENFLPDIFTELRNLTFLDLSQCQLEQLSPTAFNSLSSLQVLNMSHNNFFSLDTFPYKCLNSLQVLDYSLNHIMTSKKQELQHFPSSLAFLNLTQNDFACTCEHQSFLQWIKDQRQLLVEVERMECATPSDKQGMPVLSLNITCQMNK
T2 sequence (P02647 25-267 limits assumed): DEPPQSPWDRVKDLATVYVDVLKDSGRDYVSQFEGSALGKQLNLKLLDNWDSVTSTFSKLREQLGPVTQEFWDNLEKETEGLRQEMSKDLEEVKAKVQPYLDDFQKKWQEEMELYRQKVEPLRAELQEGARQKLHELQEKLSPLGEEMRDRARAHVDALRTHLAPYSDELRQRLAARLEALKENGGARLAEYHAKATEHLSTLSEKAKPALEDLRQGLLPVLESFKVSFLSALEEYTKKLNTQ

B1: His-tagged deletion mutant (mut, 52-288 aa) human AIBP (other)
chain: MASTVVKYLSQEEAQAVDQELFNEYQFSVDQLMELAGLSCATAIAKAYPPTSMSRSPPTVLVICGPGNNGGDGLVCARHLKLFGYEPTIYYPKRPNKPLFTALVTQCQKMDIPFLGEMPAEPMTIDELYELVVDAIFGFSFKGDVREPFHSILSVLKGLTVPIASIDIPSGWDVEKGNAGGIQPDLLISLTAPKKSATQFTGRYHYLGGRFVPPALEKKYQLNLPPYPDTECVYRLQ
notes: Baculovirus/insect cell expression, pAcHLT-C vector; also called mutAIBP; mut AIBP; not shown: N-terminal His-tag of the pAcHLT-C vector
binding result [1]: no binding | binding result [2]: binds

B2: His-tagged zebrafish (zf) AIBP lacking the signal peptide (other, UniProt Q6DHK1 29-283, looked up)
chain: SSAASNIYSKHLTHRPTCTMANTGVKYLGQEEAQQIDEELFSDFSFSVDQLMELAGLSCATAVAKGYPVTSLLKSPARVLVICGPGNNGGDGLVCARHLKLFGYEPSVLYPKRPNKQLFQNLSIQCQKMEIPFLTEMPEADLIDEAYSLVVDAIFGFSFKGAVREPFGEILSQLKKITVPIASVDIPSGWDVEKGCPDGIQPDMLISLTAPKKSAALFKGRFHFLGGRFVPPVLEQKYQLNLPQYPGTECVFQLN
notes: mature; also called zebrafish wild type AIBP; not shown: N-terminal His-tag of the pAcHLT-C vector
binding result [3]: no binding

B3: d51 AIBP-his (expressed in E. coli) (other)
chain: B1 chain
notes: not shown: his tag, read from the name as C-terminal
binding result [4]: no binding

B4: cleaved His-d24 AIBP (other)
chain: GSPGLDGICSRQTIACRSGPTWWGPQRLNSGGRWDSEVMASTVVKYLSQEEAQAVDQELFNEYQFSVDQLMELAGLSCATAIAKAYPPTSMSRSPPTVLVICGPGNNGGDGLVCARHLKLFGYEPTIYYPKRPNKPLFTALVTQCQKMDIPFLGEMPAEPMTIDELYELVVDAIFGFSFKGDVREPFHSILSVLKGLTVPIASIDIPSGWDVEKGNAGGIQPDLLISLTAPKKSATQFTGRYHYLGGRFVPPALEKKYQLNLPPYPDTECVYRLQ
notes: also called putative cleavage product of His-d24 AIBP
binding result [5]: no binding
